Here are results for 2 molecules from publication PMC4784688 (Developmental cell, 2015).

What is called Kd is a measure of binding affinity in units of concentration. A higher Kd goes with weaker binding.

In one experiment the target is T1, Slitrk5 (UniProt O94991).
T1 chain: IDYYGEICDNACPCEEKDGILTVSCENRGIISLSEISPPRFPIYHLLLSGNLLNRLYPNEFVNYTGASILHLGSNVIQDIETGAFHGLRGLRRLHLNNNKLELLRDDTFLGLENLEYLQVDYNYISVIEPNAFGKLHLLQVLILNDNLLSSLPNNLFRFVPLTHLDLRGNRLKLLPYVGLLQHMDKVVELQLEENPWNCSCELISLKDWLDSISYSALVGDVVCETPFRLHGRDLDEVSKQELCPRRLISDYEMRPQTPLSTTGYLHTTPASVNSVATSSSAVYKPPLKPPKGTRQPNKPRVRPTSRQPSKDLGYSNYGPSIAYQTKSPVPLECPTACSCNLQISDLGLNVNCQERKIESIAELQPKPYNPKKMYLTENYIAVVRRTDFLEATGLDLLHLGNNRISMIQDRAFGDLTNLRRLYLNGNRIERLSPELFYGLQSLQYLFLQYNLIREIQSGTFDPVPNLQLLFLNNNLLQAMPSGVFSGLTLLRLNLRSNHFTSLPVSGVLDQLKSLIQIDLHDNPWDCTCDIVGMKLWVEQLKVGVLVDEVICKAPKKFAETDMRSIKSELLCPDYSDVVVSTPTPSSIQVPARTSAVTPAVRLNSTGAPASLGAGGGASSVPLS
Description: PTPδ-Fc dissociation from cells.

Experiment [1] deals with T2, soluble purified PTPδ ectodomain fused to the Fc region of human immunoglobulin (UniProt Q64487 21-1266).
T2 sequence (looked up): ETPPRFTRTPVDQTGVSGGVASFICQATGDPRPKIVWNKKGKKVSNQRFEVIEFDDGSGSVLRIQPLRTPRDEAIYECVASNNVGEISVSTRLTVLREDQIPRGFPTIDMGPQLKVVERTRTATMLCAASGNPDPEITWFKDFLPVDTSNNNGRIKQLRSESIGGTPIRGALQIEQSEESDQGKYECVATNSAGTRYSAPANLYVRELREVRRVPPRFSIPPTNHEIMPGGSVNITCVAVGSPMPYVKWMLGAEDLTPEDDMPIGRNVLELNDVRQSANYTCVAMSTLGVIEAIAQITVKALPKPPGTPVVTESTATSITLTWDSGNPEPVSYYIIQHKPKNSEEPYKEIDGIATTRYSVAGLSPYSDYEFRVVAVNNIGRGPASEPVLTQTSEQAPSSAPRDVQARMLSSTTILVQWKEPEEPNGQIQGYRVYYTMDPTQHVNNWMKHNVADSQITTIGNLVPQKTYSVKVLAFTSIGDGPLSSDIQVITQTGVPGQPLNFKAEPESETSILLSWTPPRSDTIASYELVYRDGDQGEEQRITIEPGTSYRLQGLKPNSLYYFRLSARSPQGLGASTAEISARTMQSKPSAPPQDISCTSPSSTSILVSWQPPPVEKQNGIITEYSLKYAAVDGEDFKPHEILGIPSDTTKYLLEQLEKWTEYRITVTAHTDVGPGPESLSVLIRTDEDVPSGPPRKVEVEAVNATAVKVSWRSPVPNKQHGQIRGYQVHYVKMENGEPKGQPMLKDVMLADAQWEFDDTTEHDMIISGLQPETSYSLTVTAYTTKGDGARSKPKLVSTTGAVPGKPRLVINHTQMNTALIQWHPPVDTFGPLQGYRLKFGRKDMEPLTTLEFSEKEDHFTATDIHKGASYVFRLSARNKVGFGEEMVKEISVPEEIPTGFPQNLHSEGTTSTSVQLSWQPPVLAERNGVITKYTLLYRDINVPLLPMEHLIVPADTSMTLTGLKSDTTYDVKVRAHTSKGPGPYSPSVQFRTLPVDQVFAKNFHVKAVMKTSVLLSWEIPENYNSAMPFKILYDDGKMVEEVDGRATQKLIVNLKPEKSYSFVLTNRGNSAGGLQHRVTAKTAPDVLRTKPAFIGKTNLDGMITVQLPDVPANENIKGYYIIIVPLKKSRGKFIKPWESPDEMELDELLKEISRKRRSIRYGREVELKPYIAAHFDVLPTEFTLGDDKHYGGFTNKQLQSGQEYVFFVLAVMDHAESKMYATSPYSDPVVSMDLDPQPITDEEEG
Description: immunostaining of cells or tissue.

B1: BDNF (protein)
chain: HSDPARRGELSVCDSISEWVTAADKKTAVDMSGGTVTVLEKVPVSKGQLKQYFYETKCNPMGYTKEGCRGIDKRHWNSQCRTTQSYVRALTMDSKKRIGWRFIRIDTSCVCTLTIKRGR
On to B1, for which the Kd with Slitrk5 is approximately 0.9 nM.

B2: HA-tagged Slitrk5 (WT, full-length) (natural protein, UniProt Q810B7 41-957, looked up)
chain: IDYYGEICDNACPCEEKDGILTVSCENRGIISLSEISPPRFPIYHLLLSGNLLSRLYPNEFVNYTGASILHLGSNVIQDIETGAFHGLRGLRRLHLNNNKLELLRDDTFLGLENLEYLQVDYNYISVIEPNAFGKLHMLQVLILNDNLLSGLPNNLFRFVPLTHLDLRGNRLKLLPYVGLLQHMDKVVELQLEENPWNCSCELISLKDWLDSISYSALVGDVVCETPFRLHGRDLDEVSKQELCPRKLISDYEMRPQTPLSTTGYLHTTPASVNSVATSSSAVYKPPLKPPKGTRQPNKPRVRPTSRQPSKDLGYSNYGPSIAYQTKSPVPLECPTACTCNLQISDLGLNVNCQERKIESIAELQPKPYNPKKMYLTENYITVVRRTDFLEATGLDLLHLGNNRISMIQDRAFGDLGNLRRLYLNGNRIERLSPELFYGLQSLQYLFLQYNLIREIQAGTFDPVPNLQLLFLNNNQLQAMPSGVFSGLTLLRLNLRGNSFTSLPVSGVLDQLTSLIQIDLHDNPWDCTCDVVGMKLWIEQLKVGVLVDEVICKAPKKFAETYMRSIKSELLCPDYSDVVVSTPTPSSIQVPSRTNAATPAVRLNSTGTPAGLGAGTGASSVPLSVLILSLLLVFIMSVFVAAGLFVLVMKRRKKNQSDHTSTNNSDVSSFNMQYSVYGGGGGGGGGHPHAHVHHRGPALPKVKTPAGHVYEYIPHPLGHMCKNPIYRSREGNSVEDYKDLHELKVTYSSNHHLQQQPPPPPQQPQQQPPPQMQMQPGEEERRESHHLRSPAYSVSTIEPREDLLSPVQDADRFYRGILEPDKHCSTTPAGSSLPEYPKFPCSPAAYTFSPNYDLRRPHQYLHPGAGESRLREPVLYSPPGAVFVEPNRNEYLELKAKLNVEPDYLEVLEKQTTFSQF
The molecule B2 yielded a Kd in experiment [1] of approximately 100 nM.
